In publication PMC5938345:

How the values were obtained:
[1] = target: gp350-ECD123-Fc_(mIgG2a) (Epstein-Barr virus (strain M81) | mouse) (UniProt P03200); test: SPR; Biacore T200; the three recombinant gp350s immobilised on CM5 chip at pH 5.5 with low RU to avoid avidity; MBP-hCR2 SCR1-2 injected at 30 µl/min; regeneration with 10 mM glycine-HCl pH 1.5; 1:1 fit
[2] = target: gp350-ECD123-6His (Epstein-Barr virus (strain M81)) (UniProt P03200); test: as above
[3] = target: gp350-ECDFL-Fc_(mIgG2a) (Epstein-Barr virus (strain M81) | mouse) (UniProt P03200); test: as above
[4] = target: gp350-ECD123-Fc_(mIgG2a) (Epstein-Barr virus (strain M81) | mouse) (UniProt P03200); test: SDS-PAGE under reducing and non-reducing conditions with Western blot; 15 µl supernatants of passage 1 baculovirus stocks, with and without β-ME, 10% SDS-PAGE; detected by anti-His or anti-mouse Fc antibody
[5] = target: gp350-ECD123-Fc_(mIgG2a) (Epstein-Barr virus (strain M81) | mouse) (UniProt P03200); test: AUC; sedimentation velocity, 20°C, PBS, 35,000 rpm, samples diluted to 1 OD at 280 nm; c(s) and c(M) in Sedfit
[6] = target: gp350-ECDFL-Fc_(mIgG2a) (Epstein-Barr virus (strain M81) | mouse) (UniProt P03200); test: SDS-PAGE under reducing and non-reducing conditions with Western blot; 15 µl supernatants of passage 1 baculovirus stocks, with and without β-ME, 10% SDS-PAGE; detected by anti-His or anti-mouse Fc antibody
[7] = target: gp350-ECDFL-Fc_(mIgG2a) (Epstein-Barr virus (strain M81) | mouse) (UniProt P03200); test: AUC; sedimentation velocity, 20°C, PBS, 35,000 rpm, samples diluted to 1 OD at 280 nm; c(s) and c(M) in Sedfit

MBP-hCR2 SCR1-2 (domain or fragment)
Kd [1]: 94.6 nM | koff [1]: 0.00383 s⁻¹ | kon [1]: 40500 M⁻¹ s⁻¹ | Kd [2]: 294 nM | koff [2]: 0.00141 s⁻¹ | kon [2]: 4780 M⁻¹ s⁻¹ | Kd [3]: 68.5 nM | koff [3]: 0.0012 s⁻¹ | kon [3]: 17600 M⁻¹ s⁻¹

gp350-ECD123-Fc_(mIgG2a) (from UniProt P03200-1 1-425) (Fc fusion)
stoichiometry N [4]: 2 | stoichiometry N [5]: 2

gp350-ECDFL-Fc_(mIgG2a) (from UniProt P03200-1 1-803) (Fc fusion)
stoichiometry N [6]: 2 | stoichiometry N [7]: 2
